{
  "source": "the RNAGym collection of RNA variant scans (doi:10.1073/pnas.2313332121)",
  "parents": {"B1": {"name": "TPR 5TU (parent)", "chain": "GGAUCUUCUCGAUCUAACAAAAAAGACAAAUCUGCCACAAAGCUUGAGAGCAUCUUCGGAUGCAGAGGCGGCAGCCUUCGGUGGCGCGAUAGCGCCAACGUUCUCAACUAUGACACGCAAAACGCGUGCUCCGUUGAAUGGAGUUUAUCAUG"}},
  "note": "Variants at the floor of the assay were thinned out.",
  "data": [
    {"variants_of": "B1", "assay": "polymerase ribozyme fitness, log enrichment relative to wild type (log ratio); higher = more active; in vitro selection for triplet polymerase activity", "procedure,_shortened": "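Fitness measures genotype enrichment against wild-type enrichment on a logarithmic scale, with inverse-variance-weighted averaging of replicates. The logarithm is base 2, and genotypes were kept only with ≥10 input reads and ≥1 read per output in Illumina sequencing. The sequenced libraries came from one triplicate in vitro selection round, including frozen incubation at −7 °C, of PCR-built, transcribed mutant libraries of each subunit of a heterodimeric triplet polymerase ribozyme.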", "values": [
      {"variant": "GGAUCUUCUCGAUCUAACAAAAAAGACAAAUCUGCCACAAAGCUUGAGAGCAUCUUCGGUUGCAGAGGCGGCAGCCUUCGGUGGCGCGAUAGCGCCAACGUUCUCAACUAUGACACGCAAAACGCGUGGUCCGUUGAAUGGAGUUUAUCAUG", "note": "[A60U C129G]", "polymerase ribozyme fitness (log ratio)": -3.43},
      {"variant": "GGAUCUUCUCGAUCUAACAAAAAAGACAAAUCUGCCACAAAGCUUCAGAGCAUCAUCGGAUGCAGAGGCGGCAGCCUUCGGUGGCGCGUUAGGGCCAACGUUCUCCACUAUGACACGCAAAACGCGCGCUCCGUUGAAUCGAGUUUAUCAUG", "note": "[G46C U55A A89U C93G A106C U127C G140C]", "polymerase ribozyme fitness (log ratio)": "≤ -4.2"},
      {"variant": "GGAUCUUCUCGAUCUAACAAAAAUGACAAAUCUGCCACAAAGCUUGAGAGCAUCUUCGGAUGCAGAGGCGGCAGCAUUCGGUGGAGCGAUAGCGCCAACGUUCUCAACUAUGACACGCAAAACGCGUGCUCCGUUGAAUGGAGUUUAUCAUG", "note": "[A24U C76A C85A]", "polymerase ribozyme fitness (log ratio)": -1.65},
      {"variant": "GGAUCUUCUCGAUCUAACAAAAUAGACAAAUCUGCCACAAAGCUUGAGAGCAUUUUUGGAUGCAGAGACGGCAGCCUUCGGUGGCGAGAUGGCGCCAACGUUCUCAACUAUGACACGCAAAACGCGUGCUCCUUUGAAUGGAGUUUAUCAUG", "note": "[A23U C54U C57U G68A C87A A91G G133U]", "polymerase ribozyme fitness (log ratio)": "≤ -4.2"},
      {"variant": "GGAUCUUCUCGAUCUUACAAAAAAGACAAAUCUGCCACAAAGCUUGAGAGCAUCUUCGGAGGCAGAGGCGGCAGCCCUCGGUGGAGCGAUACCGCCAACGUUCUCAACUAUGACACGCAAAACGCGUGCUCCGUUGAAUGGAGAUUAUCAUG", "note": "[A16U U61G U77C C85A G92C U144A]", "polymerase ribozyme fitness (log ratio)": "≤ -4.2"},
      {"variant": "GGAUCUUCUCGAUCUAACAAAAAAGACAAAUCUGCCACAAAGCUUGAGAGCAUCUACGGAUGCAGAGGCGGCAGCGUUCGGUGGCGCGAUAGCGCCAACGUUCUCAACUAUGACACGCAAAACGCGUGCUCCGUUGAAUGGAGUUUAUCAUG", "note": "[U56A C76G]", "polymerase ribozyme fitness (log ratio)": "≤ -4.2"},
      {"variant": "GGAUCUUCUCGAUCUAACAAAAAAGACAAAUCUGCCACAAAGCUAGAGAGCAUCUUCGGAUGCAGAGGCGGCAGCCUUCGGUGGCGCGAUAGCGCCAACGUUCUCAACUAUGACACGUACAACGCGUGCUCCGUUGAAUGGAGUUUAUCAUG", "note": "[U45A C118U A120C]", "polymerase ribozyme fitness (log ratio)": -2.58},
      {"variant": "GGAUCUUCUCGAUCUAACAAAAAAGACAAAUUUGCCAUAAAGCUUGAGAGCAUCUUCCGAUGCAGAGGCGGCAGCCUUCGGUGGCGCGAUAGCGCCAACGUUCUCAACUAUGACACGCAAAACGCGUGCUCCGUUGAAUGGAGUUUAUCAUG", "note": "[C32U C38U G58C]", "polymerase ribozyme fitness (log ratio)": -2.43},
      {"variant": "GGAUCUUCUCGAUCUAACAAAAAAGACAAAUCUGCCACAAAGCUUGAGAGCAUCUUCGGAUGCAGAGGCGGCAGCCUUCGGUGGCGCGAUAGCGCCAACGUUCUCAACUAUGACACGCAAAACACGCGCUCCGUUGAAUGGAGUUUAUCAUG", "note": "[G124A U127C]", "polymerase ribozyme fitness (log ratio)": -2.79},
      {"variant": "GGAUCUUCUCGAUCUAACAAAUAAGACAACUAUGCCACAAAGCUUGAGAGCAUCUUCGGCUGCAGAGGCGGCAGCCUUCGGUGGGACGUUAGCGCCAACGUUCUCAACUGUGACACGCAAAACGCGUGCUCCGUGGAAUGGAGGUUAUCAUG", "note": "[A22U A30C C32A A60C C85G G86A A89U A110G U135G U144G]", "polymerase ribozyme fitness (log ratio)": "≤ -4.2"},
      {"variant": "GGAUCUUCUCGAUCUAACAAAAAAGACAAAUCUGCCACAAAGCUUGAGAGCAUCUUCGGAUGCAGAGGCGGCAGCCUUCGGUGGCGCGGUAGCGCCAACGUUCUCAAUUAUGACACGCAAAACGCGUGCUCCGUUGAAUGGAGUUUAUCAUG", "note": "[A89G C108U]", "polymerase ribozyme fitness (log ratio)": -3.7},
      {"variant": "GGAUCUUCUCGAUCUAAUAAAAAAGACAAAUCUGCCACAAAGCUUGAGAGCAUCUUCGGAUGCAGAGGCGGCACCCUUCGGUGGCGCGAUAGCGCAAACGUUCUCAACUAUGACACGCAAAACGCGUGCUCCGUUGAAUGGAGUUUAUCAUG", "note": "[C18U G74C C96A]", "polymerase ribozyme fitness (log ratio)": "≤ -4.2"},
      {"variant": "GGAUCUUCUCGAUCUAACAAAAAAGACAAAUCUGCCACAAAGCUUGAGAGCAUCUUCGGAUGCAGAGGAGGCAGCCUUCGGUGGCACGAUAGCGCCAACGUUCUCAACUAUGACACGCAAAACGCGUGCUCCGUUGAAUGGAGUUUAUAAUG", "note": "[C69A G86A C149A]", "polymerase ribozyme fitness (log ratio)": "≤ -4.2"},
      {"variant": "GGAUCUUCUCGAUGUAACAAAAAAGACAAAUCUGCCACAAAGCUUGAGAACAUCUUCGGAUGCAGAGGCGGCAGCCUUCGGUGGCGCGAUAGCGCCAACGUUCUCAACUAUGACACGCAAAACGCGUGCUCCGUUGAAUGGAGUUUAUCAUG", "note": "[C14G G50A]", "polymerase ribozyme fitness (log ratio)": -3.35},
      {"variant": "GGAUAUUCUCGAUCUAACAAAAAUGACAAAUCUGCCACACAGCUUGAGAGCCUCUUCGGAUGCAGAGGCGGCAGCCUUCGGUGGCGCGAUAGCGCCAACGUUCUCAACUAUGACACGCAAAACGCGUGCUCCGUUGAAUGGAGUUUAUCAUG", "note": "[C5A A24U A40C A52C]", "polymerase ribozyme fitness (log ratio)": -0.908},
      {"variant": "GGAUCUUCUCGAUCUAACAAAAAAGACAAAUCUGCCACAAAGCAUGAGAGCAUCUUGGGAUGCAGAGGCCGCAGCCUUCGGUGGCGCGAUAGCGCUAACGUUCUCAUCUAUGACACGCAAAACGCGUGCUCCGUUGAAUGGAGUUUAUGCUG", "note": "[U44A C57G G70C C96U A107U C149G A150C]", "polymerase ribozyme fitness (log ratio)": "≤ -4.2"},
      {"variant": "GGAUCUUCUCGAUCUAACAAAAAAGACAAAUCUGCCACAAAGCUUGAGAGCAUCAUCGUAUGCAGAGGCGGCAGCCUUCGGUGGCGUGAUAGCGCCAACGUUCUCAACUAUGACACGCAAAACGCGUGCUCCGUUGAAUGGAGUUUAUCAUG", "note": "[U55A G59U C87U]", "polymerase ribozyme fitness (log ratio)": -2.31},
      {"variant": "GGAUCUUCUCGAUCUAACAAAAAAGACAAAUCUGCCACAAAGCUUGAGAGCAUCUUCGGAUGCAGAGGCGGUAGCCUUCGGUGGGGCGAUAGCGCCAAGGUUCUCAACUAUGAGACGCAAAACGCGUGCUCCGUUGAAUGGAGUUUAUCAUG", "note": "[C72U C85G C99G C114G]", "polymerase ribozyme fitness (log ratio)": "≤ -4.2"},
      {"variant": "GGAUCUUCUCGAUCUAACAAAAAAGACAAAUCUGCCACAAAGCCUGAGAGCAUCUUCGGAUGCAGAGGCGGCAGCCUUCGGUGGCGCGAUAGCGCCAACGUUCUCAACUAUGACACGCAAAACGCGUGCUCCGUUGAAUGGAGUUCAUCAUG", "note": "[U44C U146C]", "polymerase ribozyme fitness (log ratio)": -3.77}
    ]}
  ]
}
